Experimental data published in the Immune Epitope Database (IEDB).

Legend:
[1] = biological target: HLA-B*15:01; assay: IEDB peptide-MHC binding, purified MHC/competitive/fluorescence; filed as Kd, often an IC50 or EC50 that approximates it; ≥ and ≤ were set here for values at or beyond the usual limits of such assays; conditions: source organism: Escherichia coli 536
[2] = biological target: HLA-A*30:02; assay: IEDB peptide-MHC binding, purified MHC/competitive/radioactivity; filed as Kd, often an IC50 or EC50 that approximates it; ≥ and ≤ were set here for values at or beyond the usual limits of such assays
[3] = biological target: HLA-B*53:01; assay: as above
[4] = biological target: HLA-A*23:01; assay: as above
[5] = biological target: HLA-A*24:02; assay: as above
[6] = biological target: HLA-A*29:02; assay: as above
[7] = biological target: HLA-A*26:01; assay: as above
[8] = biological target: HLA-A*01:01; assay: as above
[9] = biological target: HLA-A*32:01; assay: as above
[10] = biological target: HLA-A*30:01; assay: as above
[11] = biological target: HLA-B*51:01; assay: as above
[12] = biological target: HLA-A*03:01; assay: as above; conditions: source organism: SARS coronavirus Tor2
[13] = biological target: HLA-A*33:01; assay: as above; conditions: source organism: SARS coronavirus Tor2
[14] = biological target: HLA-A*31:01; assay: as above; conditions: source organism: SARS coronavirus Tor2
[15] = biological target: HLA-A*68:01; assay: as above; conditions: source organism: SARS coronavirus Tor2
[16] = biological target: HLA-A*11:01; assay: as above; conditions: source organism: SARS coronavirus Tor2
[17] = biological target: HLA-B*35:01; assay: as above; conditions: source organism: Dengue virus 3 Martinique/1243/1999
[18] = biological target: HLA-A*02:02; assay: as above; conditions: source organism: SARS coronavirus Tor2
[19] = biological target: HLA-A*02:03; assay: as above; conditions: source organism: SARS coronavirus Tor2
[20] = biological target: HLA-A*02:06; assay: as above; conditions: source organism: SARS coronavirus Tor2
[21] = source organism: Dengue virus 4 Philippines/H241/1956
[22] = source organism: Dengue virus 2 Jamaica/1409/1983
[23] = source organism: SARS coronavirus Tor2
[24] = source organism: Mammarenavirus juninense
[25] = source organism: Dengue virus 4 Dominica/814669/1981
[26] = source organism: Mammarenavirus brazilense
[27] = source organism: Lymphocytic choriomeningitis virus (strain Armstrong)
[28] = source organism: Dengue virus 3 Martinique/1243/1999
[29] = source organism: Dengue virus 1 Brazil/97-11/1997
[30] = source organism: Mammarenavirus guanaritoense
[31] = source organism: Mammarenavirus whitewaterense

Question: With FSPRLCRPF as the sequence, how does the Kd [1] read?
Answer: 325 nM

Question: TGFDWITDY was tested. Which Kd [2, 21] did it give?
Answer: 1600 nM

Question: LMKITAEWLW was tested. Which Kd [3, 22] did it give?
Answer: 1410 nM

Question: Which results are given for GAEHVDTSY?
Answer: Kd [4, 23]: ≥ 77.8 µM; Kd [5, 23]: ≥ 77.6 µM; Kd [2, 23]: 2900 nM; Kd [6, 23]: 722 nM; Kd [7, 23]: 2450 nM; Kd [8, 23]: 398 nM

Question: What does the source list for EALSGFLQY?
Answer: Kd [2, 24]: 3950 nM; Kd [9, 24]: ≥ 77.8 µM; Kd [6, 24]: 778 nM; Kd [7, 24]: 1490 nM; Kd [8, 24]: 11600 nM; Kd [10, 24]: ≥ 43100 nM

Question: For FMMSRRRLL, which Kd [4, 23] is on record?
Answer: 0.496 µM

Question: What about the Kd [5, 23] of the same sequence?
Answer: 1.41 µM

Question: And the Kd [2, 23]?
Answer: 6730 nM

Question: What about the Kd [6, 23] of the same sequence?
Answer: 2620 nM

Question: What about the Kd [7, 23] of the same sequence?
Answer: ≥ 77900 nM

Question: What about the Kd [8, 23] of the same sequence?
Answer: ≥ 78100 nM

Question: For IPHDLMELI, which Kd [3, 25] is on record?
Answer: 6.5 nM

Question: What about the Kd [11, 25] of the same sequence?
Answer: 16.8 nM

Question: With ATVAYFNMVY as the sequence, how does the Kd [12] read?
Answer: 269 nM

Question: What about the Kd [4, 23] of the same sequence?
Answer: ≥ 30.9 µM

Question: What about the Kd [13] of the same sequence?
Answer: ≥ 70 µM

Question: And the Kd [5, 23]?
Answer: 13 µM

Question: What about the Kd [2, 23] of the same sequence?
Answer: 1210 nM

Question: And the Kd [14]?
Answer: 2330 nM

Question: And the Kd [6, 23]?
Answer: 0.00633 nM

Question: And the Kd [15]?
Answer: 549 nM

Question: And the Kd [16]?
Answer: 74.2 nM

Question: And the Kd [7, 23]?
Answer: 979 nM

Question: What about the Kd [8, 23] of the same sequence?
Answer: 893 nM

Question: DSSQGSEYDY was tested. Which Kd [4, 23] did it give?
Answer: ≥ 70 µM

Question: What about the Kd [5, 23] of the same sequence?
Answer: ≥ 70.3 µM

Question: What about the Kd [2, 23] of the same sequence?
Answer: 151 nM

Question: And the Kd [6, 23]?
Answer: 1350 nM

Question: And the Kd [7, 23]?
Answer: 7270 nM

Question: What about the Kd [8, 23] of the same sequence?
Answer: 151 nM

Question: For NYPYLFEEHL, which Kd [4, 26] is on record?
Answer: 0.824 µM

Question: What about the Kd [5, 26] of the same sequence?
Answer: 0.979 µM

Question: And the Kd [6, 26]?
Answer: ≥ 71400 nM

Question: How did the Kd [2, 27] turn out when FSKSRSTLMY was run?
Answer: 993 nM

Question: What about the Kd [9, 27] of the same sequence?
Answer: ≥ 69.9 µM

Question: What about the Kd [6, 27] of the same sequence?
Answer: 333 nM

Question: And the Kd [7, 27]?
Answer: 878 nM

Question: And the Kd [8, 27]?
Answer: 68.5 nM

Question: What about the Kd [10, 27] of the same sequence?
Answer: 377 nM

Question: Which results are given for CYSQVNPTTL?
Answer: Kd [4, 21]: 1.33 µM; Kd [5, 21]: 0.326 µM

Question: For PFGDSYIII, which Kd [4, 22] is on record?
Answer: 3.96 µM

Question: How did the Kd [4, 23] turn out when AYATAQEAY was run?
Answer: ≥ 77.8 µM

Question: And the Kd [5, 23]?
Answer: ≥ 53.9 µM

Question: And the Kd [2, 23]?
Answer: 50.6 nM

Question: What about the Kd [6, 23] of the same sequence?
Answer: 642 nM

Question: What about the Kd [7, 23] of the same sequence?
Answer: ≥ 43100 nM

Question: What about the Kd [8, 23] of the same sequence?
Answer: ≥ 98000 nM

Question: Which Kd [4, 22] does the source give for EVEDYGFGVF here?
Answer: 1 µM

Question: And the Kd [7, 22]?
Answer: 132 nM

Question: Which Kd [17] does the source give for LPETMETLLL here?
Answer: 1210 nM

Question: And the Kd [3, 28]?
Answer: 24.3 nM

Question: And the Kd [11, 28]?
Answer: 1170 nM

Question: For TMADLVYAL, which Kd [4, 23] is on record?
Answer: 6.58 µM

Question: What about the Kd [5, 23] of the same sequence?
Answer: 10.1 µM

Question: And the Kd [2, 23]?
Answer: ≥ 93800 nM

Question: What about the Kd [6, 23] of the same sequence?
Answer: ≥ 23000 nM

Question: What about the Kd [18] of the same sequence?
Answer: 0.183 nM

Question: And the Kd [7, 23]?
Answer: ≥ 77900 nM

Question: And the Kd [8, 23]?
Answer: ≥ 62500 nM

Question: And the Kd [19]?
Answer: 16.2 nM

Question: What about the Kd [20] of the same sequence?
Answer: 46.5 nM

Question: For SYKVASEGF, which Kd [4, 29] is on record?
Answer: 0.626 µM

Question: And the Kd [5, 29]?
Answer: 0.209 µM

Question: HTNFESFTV was tested. Which Kd [4, 30] did it give?
Answer: ≥ 48.2 µM

Question: What about the Kd [5, 30] of the same sequence?
Answer: ≥ 77.5 µM

Question: And the Kd [2, 30]?
Answer: 971 nM

Question: And the Kd [9, 30]?
Answer: 0.682 µM

Question: What about the Kd [6, 30] of the same sequence?
Answer: 11200 nM

Question: What about the Kd [7, 30] of the same sequence?
Answer: ≥ 36600 nM

Question: What about the Kd [8, 30] of the same sequence?
Answer: 440 nM

Question: And the Kd [10, 30]?
Answer: 182 nM

Question: With ATGTDMPGGY as the sequence, how does the Kd [2, 31] read?
Answer: 531 nM

Question: What about the Kd [9, 31] of the same sequence?
Answer: ≥ 69.9 µM

Question: And the Kd [6, 31]?
Answer: 8850 nM

Question: And the Kd [7, 31]?
Answer: ≥ 69700 nM

Question: What about the Kd [8, 31] of the same sequence?
Answer: 33 nM

Question: What about the Kd [10, 31] of the same sequence?
Answer: ≥ 63600 nM

Question: What does the source list for FLDGVNLVA?
Answer: Kd [4, 30]: 8.81 µM; Kd [5, 30]: ≥ 77.5 µM; Kd [2, 30]: 17700 nM; Kd [6, 30]: 5430 nM; Kd [7, 30]: ≥ 77900 nM; Kd [8, 30]: 9.76 nM

Question: How did the Kd [4, 23] turn out when TCDWTNAGDY was run?
Answer: ≥ 70 µM

Question: What about the Kd [5, 23] of the same sequence?
Answer: ≥ 70.3 µM

Question: And the Kd [2, 23]?
Answer: 672 nM

Question: And the Kd [6, 23]?
Answer: 2020 nM

Question: What about the Kd [7, 23] of the same sequence?
Answer: ≥ 25000 nM

Question: What about the Kd [8, 23] of the same sequence?
Answer: 133 nM
